In publication PMC2990977:

Target: 80S ribosome from Thermomyces lanuginosus (Thermomyces lanuginosus)
Test: co-sedimentation

occupancy relative to Sordarin-trapped eEF2: 60 to 70% | percent eEF2 bound (GDP only): 16%
Substance: eukaryotic elongation factor 2 (eEF2) from Thermomyces lanuginosus (natural protein)
